Laboratory results: paper PMC4299599, “Quantification of cytosolic interactions identifies Ede1 oligomers as key organizers of endocytosis” (Molecular Systems Biology, 2014)

Tests used:
[1] = target: T1, Sla2 (S. cerevisiae, UniProt P33338 1-968); assay: fluorescence cross-correlation spectroscopy (FCCS); in the cytoplasm of living yeast cells; first-named protein green (3myeGFP or 1myeGFP; eGFP for Don1), second red (3mCherry); self-interaction in diploid strains with one allele of each colour; apparent or effective KD (Kdeff) from single-cell measurements; only Kdeff values < 1000 nM are shown; values for self-interactions are upper limits; conditions: partners not purified
T1 construct: Sla2, S. cerevisiae; also called Sla2-3myeGFP; Sla2-3mCherry; source: chromosomally tagged at the endogenous locus, in the cytoplasm of living S. cerevisiae cells
T1 sequence (looked up): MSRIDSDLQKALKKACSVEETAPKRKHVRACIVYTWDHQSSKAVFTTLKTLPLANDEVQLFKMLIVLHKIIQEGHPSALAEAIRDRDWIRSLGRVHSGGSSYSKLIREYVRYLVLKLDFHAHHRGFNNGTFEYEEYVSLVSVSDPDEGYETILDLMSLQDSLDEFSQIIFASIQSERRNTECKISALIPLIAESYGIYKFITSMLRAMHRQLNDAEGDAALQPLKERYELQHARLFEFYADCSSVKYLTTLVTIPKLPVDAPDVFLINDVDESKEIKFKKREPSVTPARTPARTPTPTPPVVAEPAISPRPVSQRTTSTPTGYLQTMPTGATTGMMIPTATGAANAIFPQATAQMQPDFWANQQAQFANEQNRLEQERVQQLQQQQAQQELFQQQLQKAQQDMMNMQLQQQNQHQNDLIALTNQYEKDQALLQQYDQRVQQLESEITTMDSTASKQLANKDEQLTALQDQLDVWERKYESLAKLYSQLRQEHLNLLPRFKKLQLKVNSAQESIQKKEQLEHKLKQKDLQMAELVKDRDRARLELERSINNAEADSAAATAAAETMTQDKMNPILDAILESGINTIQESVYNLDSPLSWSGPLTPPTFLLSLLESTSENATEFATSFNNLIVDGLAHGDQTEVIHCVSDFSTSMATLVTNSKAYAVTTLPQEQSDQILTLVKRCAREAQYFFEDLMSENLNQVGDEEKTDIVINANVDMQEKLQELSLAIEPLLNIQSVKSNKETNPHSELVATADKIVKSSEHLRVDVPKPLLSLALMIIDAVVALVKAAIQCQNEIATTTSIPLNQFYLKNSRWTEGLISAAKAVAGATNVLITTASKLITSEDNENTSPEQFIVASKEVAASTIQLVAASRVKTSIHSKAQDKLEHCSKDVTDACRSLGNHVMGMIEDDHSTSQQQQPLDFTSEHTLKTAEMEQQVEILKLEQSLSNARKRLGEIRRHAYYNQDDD

[2] = target: T2, Pan1 (S. cerevisiae, UniProt P32521 1-1480); assay: as above; conditions: partners not purified
T2 construct: Pan1, S. cerevisiae; also called Pan1-1myeGFP; Pan1-3mCherry; source: chromosomally tagged at the endogenous locus, in the cytoplasm of living S. cerevisiae cells
T2 sequence (looked up): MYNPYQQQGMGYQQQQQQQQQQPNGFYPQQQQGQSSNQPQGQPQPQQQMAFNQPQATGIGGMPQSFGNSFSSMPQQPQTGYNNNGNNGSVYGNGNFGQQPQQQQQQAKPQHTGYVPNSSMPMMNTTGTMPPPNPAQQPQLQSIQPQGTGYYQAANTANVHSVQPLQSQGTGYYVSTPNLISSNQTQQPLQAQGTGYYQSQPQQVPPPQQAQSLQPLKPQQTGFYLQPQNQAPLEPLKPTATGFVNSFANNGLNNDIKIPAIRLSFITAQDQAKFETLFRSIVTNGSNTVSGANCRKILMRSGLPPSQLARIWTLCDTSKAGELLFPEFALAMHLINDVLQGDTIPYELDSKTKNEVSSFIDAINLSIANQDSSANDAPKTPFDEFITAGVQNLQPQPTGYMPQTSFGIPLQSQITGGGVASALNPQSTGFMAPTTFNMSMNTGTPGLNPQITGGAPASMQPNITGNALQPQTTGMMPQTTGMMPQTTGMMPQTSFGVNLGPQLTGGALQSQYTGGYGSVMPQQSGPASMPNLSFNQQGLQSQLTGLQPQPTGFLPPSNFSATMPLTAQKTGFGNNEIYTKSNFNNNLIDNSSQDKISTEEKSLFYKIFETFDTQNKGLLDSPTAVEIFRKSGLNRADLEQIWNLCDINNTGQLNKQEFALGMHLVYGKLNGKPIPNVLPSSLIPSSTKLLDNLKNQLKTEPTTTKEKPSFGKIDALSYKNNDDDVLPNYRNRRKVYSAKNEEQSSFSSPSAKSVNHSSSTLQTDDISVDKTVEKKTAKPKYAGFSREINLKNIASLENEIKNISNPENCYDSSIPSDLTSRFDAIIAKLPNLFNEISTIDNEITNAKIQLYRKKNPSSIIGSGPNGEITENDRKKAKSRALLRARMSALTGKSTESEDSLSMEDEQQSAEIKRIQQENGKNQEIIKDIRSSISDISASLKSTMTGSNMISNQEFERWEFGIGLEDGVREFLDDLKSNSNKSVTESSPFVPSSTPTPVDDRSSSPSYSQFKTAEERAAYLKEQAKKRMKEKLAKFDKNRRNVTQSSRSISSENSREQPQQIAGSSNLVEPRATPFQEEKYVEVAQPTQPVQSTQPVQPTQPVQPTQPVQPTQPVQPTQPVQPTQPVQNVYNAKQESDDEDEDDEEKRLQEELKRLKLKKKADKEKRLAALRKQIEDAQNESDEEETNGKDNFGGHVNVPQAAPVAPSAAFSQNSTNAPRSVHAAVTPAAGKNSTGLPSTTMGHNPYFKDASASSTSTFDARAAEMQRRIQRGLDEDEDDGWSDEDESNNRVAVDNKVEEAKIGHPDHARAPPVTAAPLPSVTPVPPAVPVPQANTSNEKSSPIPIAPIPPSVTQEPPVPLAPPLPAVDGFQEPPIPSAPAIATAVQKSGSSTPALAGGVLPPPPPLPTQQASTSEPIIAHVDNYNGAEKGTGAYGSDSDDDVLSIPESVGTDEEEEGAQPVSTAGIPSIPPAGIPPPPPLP

Kd [1]: 622 nM | Kd [2]: 27 nM
B1: End3 (natural protein, S. cerevisiae, UniProt P39013 1-349, looked up)
chain: MPKLEQFEIKKYWQIFSGLKPIENKVNHDQVLPILYNSKLDSSVLNKIWFLADIDDDDNLDFEEFVICMRLIFDMVNKNISSVPDELPDWLIPGSKVNLIKERKKRKQIENADLPPKKEIKVDWYMSPDDLNQYEKIYNSCAKLTDGTITFNELSTKLSTKFFNISKTDLNKVWSLINPQNLPSIDRDPTFYFIHCLRQRNDLGAEIPASLPNSLAEVCNKKQLSYDLRSSQPPTKRKEEANEVDNLRDNGQNSSSDSSGSNVLSNEDSIKQKYASLTDDQVANMREQLEGLLNYKKSEKTQGGSKLSKRINIRSITDDLDNIEQQVEVLENYLNNKRHELQALQAEIN
notes: End3, S. cerevisiae; also called End3-3myeGFP; End3-3mCherry; source: chromosomally tagged at the endogenous locus, in the cytoplasm of living S. cerevisiae cells
